Test results from US20140289906A1, “Compositions Having Dicamba Decarboxylase Activity and Methods of Use” (priority 2013, published 2014).
Entries after “also recorded” stand apart in the source; their conditions may differ.

How the values were obtained:
[1] = 14C assay: 14CO2 capture from [14C]-carboxyl-labeled dicamba with purified protein; type: biochemical
[2] = GC/MS detection of 2,5-dichloro phenol (2,5-DCP); kinetic determination; type: biochemical; conditions: purified protein, dicamba
Method: The decarboxylated and demethylated product of dicamba, 2,5-dichloro phenol or 2,5-DCP (FIG. 1E) is measured using a GC/MS analytical procedure with either liquid injection after liquid/liquid extraction using toluene as the extraction solvent or gas injection using head space method. The head space sample analysis is carried out on an Agilent GC/MS system with a 6890A GC, a 5973N MSD and a CTC CombiPAL auto-sampler or with a 7890A GC, a 5975C MSD and an Agilent GC Sampler 80 auto-sampler with Phenomenex ZB-MultiResidue-1 column (30 m length, 0.25 mm diameter, 0.25 um film) or equivalent. GC/MS parameters are: GC inlet temperature, 200° C.; Carry gas, helium in constant flow mode (1.2 mL/min); Oven temperature program, 70° C. for 1 min and then ramp to 275° C. at 40° C./min. […] The reaction vial is transferred to a agitator for incubation at 90° C. for 4 min at 500 rpm. With a syringe preheated at 110° C., 1000 uL of head space is injected with sample fill speed at 100 uL/sec. A 2-mm diameter liner is used in sample inlet. The MS data acquisition is done in SIM (selected ion monitoring) mode. The positive ion at M/Z 162 for the molecular ion of 2,-5-DCP is monitored at retention time of 4.06 min. Solvent delay for MS acquisition is set at 3 min. GC/MS parameters for liquid sample analysis are the same as those for head space analysis, except that the volume of liquid injection is 1 uL.

[3] = 14C assay: 14CO2 capture from [14C]-carboxyl-labeled dicamba with IPTG-induced recombinant E. coli cells; conditions: for Dicamba Decarboxylase Activity: IPTG-induced recombinant E. coli cells, 14CO2 from [14C]-carboxyl-labeled dicamba; for decarboxylation activity of dicamba: among the 108 sequences tested, recombinant E. coli cell assay; for Enzymatic Detection level: dicamba decarboxylation activity
[4] = LC-MS/MS detection of 4-chloro-3-methoxy phenol; type: biochemical; conditions: purified protein, dicamba
Method: The decarboxylated and chloro hydrolyzed product, 4-chloro-3-methoxy phenol (FIG. 1D), is measured using a LC-MS/MS analytical procedure. […] 10 ul is removed from the reaction mixture and mixed with 90 ul pre-chilled methanol followed by centrifugation at 14,000 rpm for 15 min at 4° C. 10 ul of the supernatant is then transferred into 170 ul ddH2O to achieve 5% methanol solution for injection. 50 ul of the prepared sample is injected into a 4000 Q Trap LC-MS/MS system for sample analysis. LC-MS/MS parameters are: Mobile Phase A, 2 mM ammonium acetate in water; Mobile Phase B, 2 mM ammonium acetate in methanol; Column, Aquasil, 100×2.1 mm, 3 μm, C18 column; Flow Rate, 0.6 ml/min. The MS/MS fragment 157/142 which is common to 4-chloro-3-methoxy phenol, 2-chloro-5-methoxy phenol, and 3-chloro-5-methoxy phenol is monitored at a retention time of 2.88 min.

[5] = Dicamba decarboxylation activity of computationally designed protein variants and parents (Tables 4, 5); conditions: native proteins and designed variants; assay not specified

Molecule	CO2 product detected [1]	2,5-DCP product detected [2]	Dicamba Decarboxylase Activity [3]	decarboxylation activity of dicamba [3]	Enzymatic Detection level [3]	4-chloro-3-methoxy phenol product detected [4]	dicamba decarboxylase activity (statement in the description) [5]
32 (protein, Streptomyces violaceusniger) MARIIAIEEHFLDLDIARASRPEAERLSPAFAAAYGAGQGYNYSPAPEVLLDLEEGRVADMDAHGISMQVLSSLSTQQLPADVAVELVRKVNDRAAAAVAARPDRFAAFAALPTTVPEAAADELDRAVGELGFVGSMINGRTGDAFLDAPRFDAVLRRSAELRVPVYLHPGVPPVETSRSNYEGGLDPIVTARLQTSAWGWHVETGIHFLHLVLAGVFDRYPDLQVILGHWGEMVPFFLERIEEALPQQITHLDRPVGAYFRENAHITPSGMFSQAQLQFCVETVGIERIMFSVDYPFLGNDGAEAFLRQANLPPLATEKIAHLNAERLLALPS	detected	detected	High	showed decarboxylation activity of dicamba	High	detected	–
27 (protein, listed as Aspergillus oryzae) MALGKIALEEAFALPRFEEKTRWWASLFSTDAETHVKEITDINKIRIEHADKHGVGYQILSYTAPGVQDIWDPVEAQALAVEINDYIAEQVRVNPDRFGAFATLSMHNPKEAADELRRCVEKYGFKGALVNDTQRAGPDGDDMIFYDNADWDIFWQTCTELDVPFYMHPRNPTGTIYEKLWADRKWLVGPPLSFAHGVSLHVLGMVTNGVFDRHPKLQIIMGHLGEHVPFDMWRINHWFEDRKKLLGLAETCKKTIRDYFAENIWITTSGHFSTTTLNFCMAEVGSDRILFSIDYPFETFSDACEWFDNAELNGTDRLKIGRENAKKLFKLDSYKDSSA	–	–	No	–	No	–	–
25 (protein, listed as Acidovorax avenae) MAQGKIGLEEHFAIPETLQDSAGFVPGDYWKELSLRLLDIHERRLREMDENGMEMMILSLNAPAVQAIPDTKKAVEIAVRANDFLAEQVARRPDRFQAFAALPMQDPDLATRELERCMQDLGFRGALVNGFSQVGTPENVVYYDAPQYGDFWAAVERLDAPFYLHPRNPIASWAQIYQGHPWLMGPTWAFAQETAVHALRLMASGLFDRHPGLRIILGHLGEGLPYNMWRVDHRNAWVDMPKGYPAKRKLCDYFHENFYLTTSGNFRTQTLIDALLEVGADRILFSTDWPFENVDHAAHWFDDAAISEADRLKIGRTNALSLFKLPQG	–	–	Low	–	Low	–	–
29 (protein, listed as Pseudovibrio sp.) MAGRRDFLRKSVAAGVGLTAAAQLSAGGAQATVPDTSNIPLITLEEHFTTPELQSKNTSGDKRLFSGGGSRPELLDVGAGRIADMDEAGIDIQVLSTVTPGASKITGAEGVEFTRKFNTWIAEEVIAAYPNRFRAFATLPLSSPEAAADELERSVREYGFVGTMTYGPIDGKFLDHADYAPLLARAEALGVPIYIHPNWPSPTAMQAYYDGLGDDLTSRILSGPGYGWHQEIAVQCLRLIVGGVFDRFPNLQIVVGHMGEGLPFYYWRVGEDLDRIAQKRLQKPVQQYFHDNLWITTSAFFRDELLNLALATMGEDRVMFSVDYPMASAKVGADWLRAADIPLATKEKIGSKNAMKLLGIDKI	–	–	No	–	No	–	–
100 (protein, listed as Reinekea blandensis) MAIIDCHGHYTTTPKGVEDYRNAQKAAVAKDPSFKGEKGQVVVSDDEIRESIENNQLKMQRERGTDLTIFSPRASWMGHHIGNEYTSQFWTEHQNDLIRRVCDLFPKNFAPVAQLPQSPGVDPAKSVPEIVRTVEQMGFIGINLNPDPSGGYWKDTSLADRAFYPIYEKMVEYDIPAMIHVSAACNDCFHTTGSHYLGADTTGFQQLIMSDVFKDFPSLKIIIPHGGGAVPYHWGRFRGLMQDQGYAPLEESALKNIYFDTCVYHQRGIDLLLDIVPTQNILFASEMIGAVRGIDPETGHNFDDTKRYIDNNTALNAEEKAMIFEGNARRVFSRLKTD	–	–	No	–	No	–	Neither of the native proteins have dicamba decarboxylase activity
24 (protein, Aspergillus niger) MALGKVVLEEAYERPNMKEKSNHEAGLYIAPNDRPRYMRQINDINQERLKLADAHGVGYTIISLTVPGIQGIFDKTEAERVATETNNWAAEQIKNHRDRLGAFACLSMHDPAQAANELRRCVQELGFHGALLCSFQHAGPDGETYLFYDQPKYDVFWKALTELDVPLYIHPAAPTGSILERLYAQRPALIGPPLSFANDVSLHTLGIISNGVFDRFPNLKIIIGHLGEHIPFDFWRIDHWFRDVKKPIADEEGRVMAQKSLYHYFKHNIWLTTSGHFSTPTLKYVVNEIGVDRVLFSVDYPYETTESGCNWWDHDKDAIVEAVGGVDNYYAIGRENAKKLLRLDKFHDSDAR	–	–	Low	–	Low	–	–
108 (protein, listed as Staphylococcus aureus) MAKSITFEEHYVIEDIQKETMNAISADPKGVPMKVMLEGLEKKTGFTNADELSHHDERIQFMNNQDVQIQVLSYGNGSPSNLVGQKAIELCQKANDQLANYIAQYPNRFVGFATLPINEPEAAAREFERCINDLGFKGALIMGRAQDGFLDQDKYDIIFKTAENLDVPIYLHPAPVNSDIYQSYYKGNYPEVTAATFACFGYGWHIDVGIHAIHLVLSGIFDRYPKLNMIIGHWGEFIPFFLERMDEALFAEHLNHSVSYYFKNSFYITPSGMLTKPQFDLVKKEVGIDRILYAADYPYIEPEKLGVFLDELGLTDEEKEKISYTNGAKLLGLSSNN	detected	detected	High	showed decarboxylation activity of dicamba	High	detected	–
124 (protein, Dicamba decarboxylase variant clone S03969214) MAQGKVALEEHFAIPETLQDSAGFVPGDYWKELQHRLLDIQDTRLKLMDAHGIETMILSLAAPAVQAIPDRRKAIEIARRANDFLAEECAKRPDRFLAFAALPLQDPDAATEELQRCVNDLGFVGALVNGFSQEGDGQTPLYYDLPQYRPFWGEVEKLDVPFYLHPRNPLPQDSRIYDGHPWLLGPTWAFAQETAVHALRLMASGLFDEHPQLNIILGHMGEGLPYMMWRIDHRVAWGKLPPAYPAKRRFMDYFNENFHITTSGNFRTQTLIDAILEIGADRILFSTDWPFENIDHASDWFNATSIAEADRVKIGRTNARRLFKLDGD	–	–	–	–	High	–	–
125 (protein, Dicamba decarboxylase variant clone S03970523) MAQGKVALEEHFAIPETLQDSAGFVPGDYWKELQHRLLDIQDTRLKLMDAHGIETMILSLAAPAVQAIPDRRKAIEIARRANDFLAEECAKRPDRFLAFAALPLQDPDAATEELQRCVNDLGFVGALVNGFSQEGDGQTPLYYDLPQYRPFWGEVEKLDVPFYLHPRNPLPQDSRIYDGHPWLLGPTWAFAQETAVHALRLMASGLFDEHPRLQIILGHMGEGLPYMMYRIDHRIAWVHEPPRYPAKRRFMDYFNENFHITTSGNFRTQTLIDAILEIGADRILFSTDWPFENIDHASDWFNATSIAEADRVKIGRTNARRLFKLDGA	–	–	–	–	High	–	–
95 (protein, listed as Pseudomonas fluorescens) MAKKPRIDMHSHFFPRISEQEAAKFDANHAPWLQVSAKGDTGSIMMGKNNFRPVYQALWDPAFRIEEMDAQGVDVQVTCATPVMFGYTWEANKAAQWAERMNDFALEFAAHNPQRIKVLAQVPLQDLDLACKEASRAVAAGHLGIQIGNHLGDKDLDDATLEAFLTHCANEDIPILVHPWDMMGGQRMKKWMLPWLVAMPAETQLAILSLILSGAFERIPKSLKICFGHGGGSFAFLLGRVDNAWRHRDIVREDCPRPPSEYVDRFFVDSAVFNPGALELLVSVMGEDRVMLGSDYPFPLGEQKIGGLVLSSNLGESAKDKIISGNASKFFNINV	–	–	No	–	No	–	not active for dicamba decarboxylation; also recorded: Neither of the native proteins have dicamba decarboxylase activity
